Residue numbers refer to the chain shown, from its start.

Common to all, as to conditions: both partners purified
Assay [1] concerns the target T1, recombinant PPTC7 (31-304) wild type (human, UniProt Q8NI37 31-304).
T1 construct: PPTC7, human, residues 31-304; pGEX-6P-2 vector; also called PPTC7 wild-type; GST-PPTC7(31-304); source: E. coli BL21(DE3), purified (glutathione-sepharose, PreScission cleavage, Superdex 75)
T1 sequence (looked up): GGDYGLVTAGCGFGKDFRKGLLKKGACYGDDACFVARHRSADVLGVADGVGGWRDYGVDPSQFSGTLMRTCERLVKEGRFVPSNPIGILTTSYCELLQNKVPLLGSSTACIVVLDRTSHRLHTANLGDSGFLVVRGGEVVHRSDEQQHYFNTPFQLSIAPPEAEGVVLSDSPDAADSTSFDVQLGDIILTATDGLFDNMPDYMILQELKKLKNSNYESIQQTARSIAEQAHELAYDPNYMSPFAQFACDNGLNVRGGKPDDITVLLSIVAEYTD
Briefly: ITC; 500 µM peptide titrated into 25 µM PPTC7; 25 °C; 50 mM HEPES pH 7.5, 300 mM NaCl, 10 mM MnCl2, 2 mM β-mercaptoethanol; MicroCal PEAQ-ITC. (In general: Isothermal titration calorimetry measures the heat released or taken up as one component is titrated into another.)

In assay [2] the target is T2, PPTC7 (31-304), wild type (human, UniProt Q8NI37 31-304).
T2 construct: human PPTC7, residues 31-304, from pGEX-6P-2 GST-PPTC7(31-304); GST removed with PreScission protease; assayed with 10 mM MnCl2 in the buffer; also called PPTC7 + Mn2+; Protein Phosphatase Targeting COQ7; source: E. coli BL21(DE3), purified (glutathione-sepharose, PreScission cleavage, Superdex 75 gel filtration); not shown: GST, N-terminal, cleaved
T2 sequence (looked up): T1 sequence (looked up)
Briefly: ITC; 500 µM peptide (syringe) titrated into 25 µM PPTC7 (cell); 25 °C; 50 mM HEPES pH 7.5, 300 mM NaCl, 10 mM MnCl2, 2 mM β-mercaptoethanol; MicroCal PEAQ-ITC.

The target in a further assay is T3, PPTC7 (31-304) D290N (human, UniProt Q8NI37 31-304, D290N).
T3 construct: human PPTC7, residues 31-304, from pGEX-6P-2 GST-PPTC7(31-304)(D290N); The purification is described for GST-PPTC7 (31-304); also called PPTC7 D290N; PPTC7-D290N; source: E. coli BL21(DE3), purified (glutathione-sepharose, PreScission cleavage, Superdex 75 gel filtration); not shown: GST, N-terminal, cleaved
T3 sequence (looked up): T1 sequence (looked up) with D260N
Described as above.

B1: NIX peptide (A138-R163) (peptide)
peptide: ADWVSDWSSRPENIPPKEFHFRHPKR
notes: also called BNIP3L(A138-R163); source: synthetic peptide
By Kd is commonly meant the free concentration of one partner at which half of the binding sites on the other are occupied at equilibrium, for simple one-to-one binding. For the molecule B1, the Kd in assay [1] worked out at 37.5 µM.

B2: BNIP3 peptide (N113-R139) (peptide)
peptide: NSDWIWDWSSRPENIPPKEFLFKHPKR
notes: also called BNIP3(N113-R139); source: synthetic peptide
As to B2, the Kd in assay [1] was 20.1 µM.

B3: BNIP3(N113-R139) peptide (peptide)
peptide: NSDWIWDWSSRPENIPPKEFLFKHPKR
notes: human BNIP3, residues N113-R139 (Q12983, 194 aa); also called BNIP3 peptide; source: synthetic peptide
The stoichiometry N is the number of molecules, sites or subunits per partner or assembly. B3: the “stoichiometry N” value in assay [2] stood at 1.

B4: BNIP3L(A138-R163) peptide (peptide)
peptide: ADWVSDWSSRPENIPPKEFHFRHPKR
notes: human NIX (BNIP3L), residues A138-R163; also called NIX; NIX peptide; source: synthetic peptide
With B4, the Kd in the assay with PPTC7 (31-304) D290N was determined as 35.9 ± 1.09 µM. Moreover, the “stoichiometry N” value (in the assay with PPTC7 (31-304) D290N; in assay [2]) was 1 each time.
